Measured values from PMC13036491, “RNA binding protein Musashi1 interacts with the viral genomic RNA and restricts SARS-CoV-2 infection by repressing translation”.

Biological target: GST-Msi1 (Homo sapiens, UniProt O43347 1-362)
Assay: EMSA; GST-Msi1 ~1.5-9 uM; dose-dependent
Details: protein: recombinant; tags: N-terminal GST (pGEX 5X-2); label: fluorescein-12-UTP

Chain of GST-Msi1 (O43347 whole entry): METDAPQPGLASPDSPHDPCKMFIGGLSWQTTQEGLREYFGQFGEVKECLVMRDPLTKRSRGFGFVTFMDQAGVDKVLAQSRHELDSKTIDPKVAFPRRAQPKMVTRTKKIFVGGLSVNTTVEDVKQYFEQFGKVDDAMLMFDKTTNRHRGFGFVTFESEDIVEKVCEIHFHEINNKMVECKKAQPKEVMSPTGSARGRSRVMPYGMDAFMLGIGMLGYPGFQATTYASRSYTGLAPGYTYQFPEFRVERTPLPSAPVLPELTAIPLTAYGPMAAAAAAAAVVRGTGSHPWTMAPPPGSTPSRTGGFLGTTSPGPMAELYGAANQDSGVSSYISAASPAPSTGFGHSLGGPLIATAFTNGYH

Binder: GGGAUUUUAGUAGUGCUAUCCCCA (ssRNA) [M2 RNA (HVR MBE)]
- binding result: binds
